According to paper doi:10.1101/2023.08.11.553045 (bioRxiv, 2023):
Where no end group is shown, it is not given here.

B1: STING cytosolic domain (hSTING CTD lacking CTT3, aa 137-366) (domain or fragment)
chain: KGLAPAEISAVCEKGNFNVAHGLAWSYYIGYLRLILPELQARIRTYNQHYNNLLRGAVSQRLYILLPLDCGVPDNLSMADPNIRFLDKLPQQTGDHAGIKDRVYSNSIYELLENGQRAGTCVLEYATPLQTLFAMSQYSQAGFSREDRLEQAKLFCRTLEDILADAPESQNNCRLIAYQEPADDSSFSLSQEVLRHLRQEEKEEVTVGSLKTSAVPSTSTMSQEPELLIS

Legend:
[1] = molecular target: STING cytosolic domain (hSTING CTD lacking CTT3, aa 137-366) (human) (UniProt Q86WV6); experiment: MST
[2] = molecular target: B1; experiment: MST
[3] = molecular target: the molecule itself; experiment: SEC
[4] = molecular target: STING-R284S CTD (human, UniProt Q86WV6 137-366, R284S); experiment: NMR titration
[5] = molecular target: B1; experiment: NMR titration

CTT8 peptide (MFEKPLPL)
fold enhancement of affinity over CTT7 [1]: 2.7 fold

MEKPLPL [CTT7 peptide (unlabelled)]
Kd [2]: 10.7 µM

B1
binding result [3]: binds

MEKPLPL (also: 15N isotopically labelled amino acids) [15N-labelled CTT7]
binding result [4]: binds
binding result [5]: binds
